Bridges are numbered along the chain shown (N, C = ends). [ ]: non-standard residue; d: D form. F(pg) = not defined here; Pra = C#CC[C@H](N)C(=O)O
B1: P2-37 (peptide)
peptide: H-DPCTWELWGRECLQGG[Pra]G-NH2
modifications: disulfide 3-12
SMILES: C#CC[C@H](NC(=O)CNC(=O)CNC(=O)[C@H](CCC(N)=O)NC(=O)[C@H](CC(C)C)NC(=O)[C@@H]1CSSC[C@H](NC(=O)[C@@H]2CCCN2C(=O)[C@@H](N)CC(=O)O)C(=O)N[C@@H]([C@@H](C)O)C(=O)N[C@@H](Cc2c[nH]c3ccccc23)C(=O)N[C@@H](CCC(=O)O)C(=O)N[C@@H](CC(C)C)C(=O)N[C@@H](Cc2c[nH]c3ccccc23)C(=O)NCC(=O)N[C@@H](CCCNC(=N)N)C(=O)N[C@@H](CCC(=O)O)C(=O)N1)C(=O)NCC(N)=O
B2: P2-40 (peptide)
peptide: H-DPCTWEVFGRECLQGG[Pra]G-NH2
modifications: disulfide 3-12
SMILES: C#CC[C@H](NC(=O)CNC(=O)CNC(=O)[C@H](CCC(N)=O)NC(=O)[C@H](CC(C)C)NC(=O)[C@@H]1CSSC[C@H](NC(=O)[C@@H]2CCCN2C(=O)[C@@H](N)CC(=O)O)C(=O)N[C@@H]([C@@H](C)O)C(=O)N[C@@H](Cc2c[nH]c3ccccc23)C(=O)N[C@@H](CCC(=O)O)C(=O)N[C@@H](C(C)C)C(=O)N[C@@H](Cc2ccccc2)C(=O)NCC(=O)N[C@@H](CCCNC(=N)N)C(=O)N[C@@H](CCC(=O)O)C(=O)N1)C(=O)NCC(N)=O
B3: P2-39 (peptide)
peptide: H-DPCTWEVAGRECLQGG[Pra]G-NH2
modifications: disulfide 3-12
SMILES: C#CC[C@H](NC(=O)CNC(=O)CNC(=O)[C@H](CCC(N)=O)NC(=O)[C@H](CC(C)C)NC(=O)[C@@H]1CSSC[C@H](NC(=O)[C@@H]2CCCN2C(=O)[C@@H](N)CC(=O)O)C(=O)N[C@@H]([C@@H](C)O)C(=O)N[C@@H](Cc2c[nH]c3ccccc23)C(=O)N[C@@H](CCC(=O)O)C(=O)N[C@@H](C(C)C)C(=O)N[C@@H](C)C(=O)NCC(=O)N[C@@H](CCCNC(=N)N)C(=O)N[C@@H](CCC(=O)O)C(=O)N1)C(=O)NCC(N)=O
B4: P2-49 (peptide)
peptide: H-DPCTWEVWGRDCLQGG[Pra]G-NH2
modifications: disulfide 3-12
SMILES: C#CC[C@H](NC(=O)CNC(=O)CNC(=O)[C@H](CCC(N)=O)NC(=O)[C@H](CC(C)C)NC(=O)[C@@H]1CSSC[C@H](NC(=O)[C@@H]2CCCN2C(=O)[C@@H](N)CC(=O)O)C(=O)N[C@@H]([C@@H](C)O)C(=O)N[C@@H](Cc2c[nH]c3ccccc23)C(=O)N[C@@H](CCC(=O)O)C(=O)N[C@@H](C(C)C)C(=O)N[C@@H](Cc2c[nH]c3ccccc23)C(=O)NCC(=O)N[C@@H](CCCNC(=N)N)C(=O)N[C@@H](CC(=O)O)C(=O)N1)C(=O)NCC(N)=O
B5: P2-38 (peptide)
peptide: H-DPCTWETWGRECLQGG[Pra]G-NH2
modifications: disulfide 3-12
SMILES: C#CC[C@H](NC(=O)CNC(=O)CNC(=O)[C@H](CCC(N)=O)NC(=O)[C@H](CC(C)C)NC(=O)[C@@H]1CSSC[C@H](NC(=O)[C@@H]2CCCN2C(=O)[C@@H](N)CC(=O)O)C(=O)N[C@@H]([C@@H](C)O)C(=O)N[C@@H](Cc2c[nH]c3ccccc23)C(=O)N[C@@H](CCC(=O)O)C(=O)N[C@@H]([C@@H](C)O)C(=O)N[C@@H](Cc2c[nH]c3ccccc23)C(=O)NCC(=O)N[C@@H](CCCNC(=N)N)C(=O)N[C@@H](CCC(=O)O)C(=O)N1)C(=O)NCC(N)=O

Target: T1, Fc tagged recombinant human EGFR (rhEGFR-Fc, R&D systems, Cat#344-ER-050) (human, UniProt P00533 25-645)
T1 construct: Bought protein; also called apo-EGFR; not shown: Fc tag
Assay: SPR
Description: Surface plasmon resonance (SPR) binding studies were carried out on a Biacore T200 instrument (GE Healthcare). […] The contact time and resulting amount of rhEGFR-Fc capture was varied based on the nature of the analyte, namely whether it was a peptide or nanoparticle.
Peptide binding assays were carried out in 10 mM PBS buffer supplemented with 0.05% surfactant P20 and 5% DMSO by volume, at 25° C. Peptides were injected over the rhEGFR-Fc surface for 60 s, followed by dissociation (buffer injection) for 60 s and regeneration with a 10 s pulse of 3M MgCl₂. A fresh rhEGFR-Fc surface was generated for each concentration of each peptide tested. Peptide binding data was analyzed by fitting to a 1:1 Langmuir kinetic model to obtain the on-rate (kₐ), off-rate (kd) and/or equilibrium binding constant (KD) of the interaction.

Binder | KD/P2 KD | binding result
B1 | 10.1 ratio | –
H-DPCTWEVWGKECLQGG[Pra]G-NH2 (disulfide 3-12) [P2-46] | 13.9 ratio | –
B2 | – | binds
B3 | – | no binding
B4 | 3.39 ratio | –
H-DPCTWEVWGAECLQGG[Pra]G-NH2 (disulfide 3-12) [P2-45] | – | binds
B5 | 12.3 ratio | –
H-DPCTWEVWG[F(pg)]ECLQGG[Pra]G-NH2 (disulfide 3-12; reading uncertain) [P2-47] | 37.1 ratio | –

— patent US20170224620A1 (Pfizer, published 2017)
